The values below come from publication PMC10765524 (2023).

Common to all, as to assay: FP
In assay [1] the target is T1, ARPP19(S10C) labelled with Alexa Fluor 488 (ARPP19-tracer) (UniProt P56211 1-112, S10C, Alexa Fluor 488 C5 Maleimide label).
T1 sequence: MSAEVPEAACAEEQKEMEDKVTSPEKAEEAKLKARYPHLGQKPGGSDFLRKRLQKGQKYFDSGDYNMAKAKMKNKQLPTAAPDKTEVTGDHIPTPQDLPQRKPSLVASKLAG

In assay [2] the target is T2, ARPP19 S104A as used in the fluorescence polarization assay (UniProt P56211 1-112, S104A).
T2 sequence: T1 sequence with C10S, S104A

For the next assay, the target named is FAM_(67-120)S120C (UniProt Q96E09 67-120, S120C, Alexa Fluor 488 C5 Maleimide label).
The target of assay [3] is FAM122AID(S120C) (FAM122AID-tracer) (UniProt Q96E09 29-120, S120C, Alexa Fluor 488 C5 Maleimide label (fluorescence polarization assay)).

Numbering of substitutions follows the chain as printed.

B1: B55 loopless (B55LL) (domain or fragment)
chain: MAGAGGGNDIQWCFSQVKGAVDDDVAEADIISTVEFNHSGELLATGDKGGRVVIFQQEQENKIQSHSRGEYNVYSTFQSHEPEFDYLKSLEIEEKINKIRWLPQKNAAQFLLSTNDKTIKLWKISNGEASPRRIFANAHTYHINSISINSDYETYLSADDLRINLWHLEITDRSFNIVDIKPANMEELTEVITAAEFHPNSCNTFVYSSSKGTIRLCDMRASALCDRHSKLFEEPEDPSNRSFFSEIISSISDVKFSHSGRYMMTRDYLSVKIWDLNMENRPVETYQVHEYLRSKLCSLYENDCIFDKFECCWNGSDSVVMTGSYNNFFRMFDRNTKRDITLEASRENNKPRTVLKPRKVCASGKRKKDEISVDSLDFNKKILHTAWHPKENIIAVATTNNLYIFQDKVN
In the case of B1, the Kd in assay [1] turned out to be 323 nM; in assay [2], 326 nM; with FAM_(67-120)S120C, 827 nM; in assay [3], 837 nM.
